Earlier results in paper PMC3535496.

Target: Jun TAD (Homo sapiens) (UniProt P05412)
Chain of UniProt P05412 (P05412 47-89): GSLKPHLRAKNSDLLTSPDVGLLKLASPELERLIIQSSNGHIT

Kd: 30 µM
Substance: CBP KIX (from UniProt Q92793)
